Laboratory results reported in publication PMC2137936, “Molecular Analysis of Thymopentin Binding to HLA-DR Molecules” (PLoS ONE, 2007).
No end group written: not given here.

Target: human class II major histocompatibility complex DR molecules (HLA-DR) on EBV-transformed B cells (human (endogenous in EBV-transformed B …, UniProt P01903 26-254; P01911 30-266)
Test: flow cytometry on cells; 3x10^5 living EBV-transformed B cells incubated with various concentrations of FITC-labeled TP5 in PBS pH 7.4 with 1% BSA, 2 h, 37°C; washed; MFI read; apparent Kd from a double-reciprocal plot of the equilibrium data
Conditions: one partner purified

B1: FITC-labeled thymopentin (TP5) (peptide)
peptide: RKDVY
modifications: also: FITC label, position not given here
notes: thymopentin (TP5), synthetic pentapeptide corresponding to position 32~36 of thymopoietin; also called FITC-labeled TP5; fluorescent-labeled TP5; source: synthetic peptide, conjugated with FITC (Sigma) and purified
Kd: 7.2 µM
